Results: patent US20200392225A1 (Novartis, published 2020)

T1: human NPR1 expressed on CHO-K1 cells in the presence of ANP (human, UniProt P01160 124-151)
T1 construct: also called hNPR1 CHO K1 + 100 nM ANP
T1 sequence: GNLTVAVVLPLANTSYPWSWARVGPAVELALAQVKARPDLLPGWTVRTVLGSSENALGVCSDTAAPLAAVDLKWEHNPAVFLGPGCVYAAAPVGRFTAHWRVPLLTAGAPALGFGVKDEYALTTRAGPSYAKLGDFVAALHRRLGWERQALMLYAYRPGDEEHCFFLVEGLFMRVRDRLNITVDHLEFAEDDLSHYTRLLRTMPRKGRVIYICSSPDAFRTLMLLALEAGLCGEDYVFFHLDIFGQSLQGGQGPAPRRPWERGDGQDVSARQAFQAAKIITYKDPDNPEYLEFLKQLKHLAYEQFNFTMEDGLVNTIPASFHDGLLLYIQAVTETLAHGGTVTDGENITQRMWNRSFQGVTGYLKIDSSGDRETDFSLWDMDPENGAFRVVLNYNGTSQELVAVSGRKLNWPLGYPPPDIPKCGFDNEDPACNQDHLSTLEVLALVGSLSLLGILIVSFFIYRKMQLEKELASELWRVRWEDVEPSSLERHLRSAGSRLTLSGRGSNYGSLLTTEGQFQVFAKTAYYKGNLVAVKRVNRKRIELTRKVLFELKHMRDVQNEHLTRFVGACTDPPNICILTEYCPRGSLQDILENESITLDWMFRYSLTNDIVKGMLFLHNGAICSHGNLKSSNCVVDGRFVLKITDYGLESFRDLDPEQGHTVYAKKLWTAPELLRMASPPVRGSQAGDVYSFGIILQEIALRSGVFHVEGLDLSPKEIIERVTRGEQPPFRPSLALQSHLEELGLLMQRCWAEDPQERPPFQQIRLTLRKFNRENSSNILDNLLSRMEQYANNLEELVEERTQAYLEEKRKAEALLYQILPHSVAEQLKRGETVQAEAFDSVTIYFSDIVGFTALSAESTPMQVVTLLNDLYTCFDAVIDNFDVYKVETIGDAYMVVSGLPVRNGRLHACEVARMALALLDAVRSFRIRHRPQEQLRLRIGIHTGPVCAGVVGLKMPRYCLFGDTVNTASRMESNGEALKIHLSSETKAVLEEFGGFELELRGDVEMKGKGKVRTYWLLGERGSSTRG
T1 sequence (peptide): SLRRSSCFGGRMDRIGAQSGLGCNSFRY

T2: human NPR1-ANP complex (human, UniProt P01160 124-151, limits assumed)
T2 construct: Receptor antigen measured in the presence of ANP; also called hNPR1 + ANP; hNPR1-ANP-complex
T2 sequence: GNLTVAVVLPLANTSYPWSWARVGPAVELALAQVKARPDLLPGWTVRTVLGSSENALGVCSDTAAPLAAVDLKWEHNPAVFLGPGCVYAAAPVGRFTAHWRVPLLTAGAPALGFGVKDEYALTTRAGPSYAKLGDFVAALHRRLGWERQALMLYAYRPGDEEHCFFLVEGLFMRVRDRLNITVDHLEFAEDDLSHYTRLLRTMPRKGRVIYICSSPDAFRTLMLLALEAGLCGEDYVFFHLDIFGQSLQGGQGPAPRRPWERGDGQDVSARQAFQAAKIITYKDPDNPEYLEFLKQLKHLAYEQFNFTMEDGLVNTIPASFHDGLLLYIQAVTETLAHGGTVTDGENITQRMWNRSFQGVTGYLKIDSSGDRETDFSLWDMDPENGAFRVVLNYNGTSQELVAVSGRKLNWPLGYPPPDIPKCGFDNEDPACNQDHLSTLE
T2 sequence (peptide): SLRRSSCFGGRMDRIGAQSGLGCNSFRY

T3: human NPR1 (Natriuretic Peptide Receptor 1), recombinant antigen (human, UniProt P16066 33-473)
T3 construct: also called hNPR1; NPR1-hFc
T3 sequence: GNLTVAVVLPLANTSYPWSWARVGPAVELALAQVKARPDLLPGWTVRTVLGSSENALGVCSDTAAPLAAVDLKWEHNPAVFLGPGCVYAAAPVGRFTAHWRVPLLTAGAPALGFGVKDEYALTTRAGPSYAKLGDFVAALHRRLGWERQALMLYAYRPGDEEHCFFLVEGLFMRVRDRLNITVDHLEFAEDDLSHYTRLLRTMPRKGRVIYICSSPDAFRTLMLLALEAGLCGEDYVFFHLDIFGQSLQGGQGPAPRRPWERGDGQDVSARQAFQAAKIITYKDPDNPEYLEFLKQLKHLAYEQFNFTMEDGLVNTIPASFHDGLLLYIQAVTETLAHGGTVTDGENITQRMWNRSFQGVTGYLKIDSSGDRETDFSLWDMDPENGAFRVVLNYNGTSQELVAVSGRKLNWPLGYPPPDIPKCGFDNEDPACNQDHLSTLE

T4: constitutively active human NPR1 mutant (W74R), recombinant antigen (human, UniProt P16066 33-473)
T4 construct: also called W74R hNPR1
T4 sequence: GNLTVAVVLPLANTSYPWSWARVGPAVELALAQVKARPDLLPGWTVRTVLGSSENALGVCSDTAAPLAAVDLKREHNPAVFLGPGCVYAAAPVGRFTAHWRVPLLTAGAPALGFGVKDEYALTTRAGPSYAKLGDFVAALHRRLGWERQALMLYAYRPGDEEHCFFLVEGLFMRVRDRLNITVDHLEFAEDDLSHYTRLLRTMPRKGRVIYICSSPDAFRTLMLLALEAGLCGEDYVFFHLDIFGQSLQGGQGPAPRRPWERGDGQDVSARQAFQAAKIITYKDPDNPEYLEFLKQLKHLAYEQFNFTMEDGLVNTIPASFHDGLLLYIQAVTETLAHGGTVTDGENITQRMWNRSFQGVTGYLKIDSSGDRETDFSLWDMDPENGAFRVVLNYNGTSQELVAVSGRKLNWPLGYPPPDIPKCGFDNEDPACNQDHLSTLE

T5: human NPR1 expressed on CHO-K1 cells (human, UniProt P16066 33-1061)
T5 sequence: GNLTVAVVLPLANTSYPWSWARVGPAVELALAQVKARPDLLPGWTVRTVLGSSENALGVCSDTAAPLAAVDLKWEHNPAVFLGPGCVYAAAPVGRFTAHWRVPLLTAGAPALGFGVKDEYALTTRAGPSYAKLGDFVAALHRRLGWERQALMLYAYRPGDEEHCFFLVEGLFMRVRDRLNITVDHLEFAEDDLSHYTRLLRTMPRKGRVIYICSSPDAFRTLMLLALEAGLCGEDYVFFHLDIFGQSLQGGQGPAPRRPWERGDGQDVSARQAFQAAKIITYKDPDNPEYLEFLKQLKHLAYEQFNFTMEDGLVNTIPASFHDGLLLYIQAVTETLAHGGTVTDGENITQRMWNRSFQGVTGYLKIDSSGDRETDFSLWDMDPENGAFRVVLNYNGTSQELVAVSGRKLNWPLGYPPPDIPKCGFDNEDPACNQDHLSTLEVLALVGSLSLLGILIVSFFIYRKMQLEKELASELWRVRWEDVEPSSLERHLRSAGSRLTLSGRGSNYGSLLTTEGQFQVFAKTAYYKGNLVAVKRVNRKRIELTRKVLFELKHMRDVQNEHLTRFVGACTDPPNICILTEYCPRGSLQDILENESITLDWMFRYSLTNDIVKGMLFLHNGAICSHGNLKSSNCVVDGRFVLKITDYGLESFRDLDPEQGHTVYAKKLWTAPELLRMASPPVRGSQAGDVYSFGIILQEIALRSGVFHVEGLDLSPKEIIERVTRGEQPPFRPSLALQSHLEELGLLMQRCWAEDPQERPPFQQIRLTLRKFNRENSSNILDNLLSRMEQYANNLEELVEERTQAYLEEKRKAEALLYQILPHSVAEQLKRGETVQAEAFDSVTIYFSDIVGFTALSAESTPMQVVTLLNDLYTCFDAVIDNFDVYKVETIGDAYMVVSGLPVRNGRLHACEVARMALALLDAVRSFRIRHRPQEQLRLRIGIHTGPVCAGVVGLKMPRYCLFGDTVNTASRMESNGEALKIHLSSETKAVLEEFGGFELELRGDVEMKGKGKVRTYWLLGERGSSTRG

T6: rat NPR1, recombinant antigen (rat, UniProt P18910 29-469)
T6 construct: NCBI NP_036745.1 printed; also called rNPR1
T6 sequence: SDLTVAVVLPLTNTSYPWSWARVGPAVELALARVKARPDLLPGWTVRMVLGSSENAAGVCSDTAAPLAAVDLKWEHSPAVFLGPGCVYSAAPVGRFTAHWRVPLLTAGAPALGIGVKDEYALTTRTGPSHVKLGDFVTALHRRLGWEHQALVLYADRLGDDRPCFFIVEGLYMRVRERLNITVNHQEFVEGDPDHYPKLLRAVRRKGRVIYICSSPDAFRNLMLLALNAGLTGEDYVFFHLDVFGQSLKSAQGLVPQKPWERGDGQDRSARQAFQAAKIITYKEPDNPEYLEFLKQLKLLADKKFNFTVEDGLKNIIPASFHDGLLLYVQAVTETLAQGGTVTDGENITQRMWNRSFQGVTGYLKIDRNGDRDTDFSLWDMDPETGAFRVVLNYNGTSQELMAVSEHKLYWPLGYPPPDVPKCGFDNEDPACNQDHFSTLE


Experiments:
[1] = molecular target: T1, human NPR1 expressed on CHO-K1 cells in …; experiment: flow cytometry, hNPR1 expressing CHO-K1 cells with saturating ANP [cont.]
human NPR1-ANP complex [2] = molecular target: T2, human NPR1-ANP complex; experiment: FRET assay on hNPR1, competitor Cy5-labeled ANP (half-maximal rise of the ANP signal) [cont.]
[3] = molecular target: T3, human NPR1 (Natriuretic Peptide …); experiment: ELISA, 1 uM IgG
[4] = molecular target: T4, constitutively active human NPR1 mutant …; experiment: ELISA, 1 uM IgG
[5] = molecular target: T5, human NPR1 expressed on CHO-K1 cells; experiment: cell-based or functional assay
[6] = molecular target: T5, human NPR1 expressed on CHO-K1 cells; experiment: flow cytometry, 1 uM IgG
human NPR1-ANP complex [7] = molecular target: T2, human NPR1-ANP complex; experiment: ELISA, 1 uM IgG, +100 nM ANP
rat NPR1-ANP complex = molecular target: T7, rat NPR1-ANP complex (rat); experiment: ELISA, 1 uM IgG, +100 nM ANP
T7 construct: Rat receptor antigen measured in the presence of ANP; also called rNPR1 + ANP; rNPR1-ANP-complex

[8] = molecular target: T1, human NPR1 expressed on CHO-K1 cells in …; experiment: flow cytometry, 1 uM IgG, +100 nM ANP
[9] = molecular target: T3, human NPR1 (Natriuretic Peptide …); experiment: ELISA, IgG titrated on the antigen without ANP [cont.]
[10] = molecular target: T4, constitutively active human NPR1 mutant …; experiment: as above
[11] = molecular target: T3, human NPR1 (Natriuretic Peptide …); experiment: FRET assay on hNPR1, competitor Cy5-labeled ANP [cont.]
human NPR1-ANP complex [12] = molecular target: T2, human NPR1-ANP complex; experiment: ELISA, IgG titrated on the antigen with 250 fold molar excess of ANP [cont.]
[13] = molecular target: T6, rat NPR1, recombinant antigen; experiment: ELISA, 1 uM IgG

Binder	EC50 (read off the curve) [1] [nM]	EC50 (read off the curve) (human NPR1-ANP complex [2]) [nM]	ELISA IgG binding at 1 uM IgG (unit not given) [3]	ELISA IgG binding at 1 uM IgG (unit not given) [4]	cGMP conc [nM] at 1 uM IgG, +0.075 nM ANP [5] [nM]	cGMP conc [nM] at 1 uM IgG, without ANP [5] [nM]	flow cytometry S/BG [6] [S/BG]	ELISA IgG binding at 1 uM IgG (unit not given) (human NPR1-ANP complex [7])	ELISA IgG binding at 1 uM IgG (unit not given) (rat NPR1-ANP complex)	flow cytometry S/BG [8] [S/BG]	EC50 (read off the curve) [9] [nM]	EC50 (read off the curve) [10] [nM]	IC50 (read off the curve) [11] [nM]	EC50 (read off the curve) (human NPR1-ANP complex [12]) [nM]	ELISA IgG binding at 1 uM IgG (unit not given) [13]
XX12 IgG (antibody, V domains shown, also called XX12_LALA) VH: QVQLLESGGGLVQPGGSLRLSCAASGFTFSSYWMNWVRQAPGKGLEWVSAISSDGSYTYYADSVKGRFTISRDNSKNTLYLQMNSLRAEDTAVYYCARDRYSMIYSYGAGAFDYWGQGTLVTVSS VL: DIQMTQSPSSLSASVGDRVTITCRASQGISSYLAWYQQKPGKAPKLLIYTASTLQSGVPSRFSGSGSGTDFTLTISSLQPEDFATYYCQQIWMAPRTFGQGTKVEIKR	~0.9	~0.5													
YY06 IgG (YY06_LALA) (antibody, V domains shown) VH: EVQLLESGGGLVQPGGSLRLSCAASGFTFSSYAISWVRQAPGKGLEWVSAISGSGGSTYYAESVKGRFTISRDNSKNTLYLQMNSLRAEDTAVYYCARPYLGDRRSYGFDHWGQGTLVTVSS VL: QSALTQPASVSGSPGQSITISCTGTSSDVGSYNLVSWYQQHPGKAPKLMIYEGSKRPSGVSNRFSGSKSGNTASLTISGLQAEDEADYYCSSYGFHIVVVVFGGGTKLTVLG			91	83	15	12	26	102	4	18	~8	~5	~5	~8	
YY05 IgG (YY05_LALA) (antibody, V domains shown) VH: EVQLVQSGAEVKKPGESLKISCKGSGYSFTSYWISWVRQMPGKGLEWMGIIYPGTSYTRYSPSFQGQVTISADKSISTAYLQWSSLKASDTAMYYCARGAVAGQLGFDHWGQGTLVTVSS VL: QSVLTQPPSVSGAPGQRVTISCTGSSSNIGAGYDVHWYQQLPGTAPKLLIYGNSNRPSGVPDRFSGSKSGTSASLAITGLQAEDEADYYCQSYYTSSHGPVFGGGTKLTVLG			81	69	15	13	15	32	16	5		~1			11
